US8796209B2, “Compositions and methods related to anti-FGF agents” (The Regents of the University of California, priority 2005, dated 2014)
Positions count from the first letter of the chain named. Values belong to the molecule of their own block, whether it stands above or below them.

Assays:
ERK1/2 = test: MAP kinase (ERK1/2) activation, western blot; assay type: cell-based, mouse; details: for ability to induce ERK1/2 activation: 5 ng/ml, 10 min, with or without 5 μg/ml heparin; for ERK1/2 activation: phenotype of FGF-1 mutants, Table 2
Procedure: Serum starved Balb3T3 cells were stimulated with wild-type and mutant FGF-1s (5 ng/ml) in the presence or absence of 5 μg/ml heparin for 10 min at 37° C. Cell lysates were analyzed by western blotting with anti-phospho ERK1/2 (anti phospho-ERK). Total amount of ERK1/2 in each lane was determined by blotting with anti-ERK1/2. Controls contain medium alone (none) or medium containing 10% fetal calf serum (FCS).
Balb3T3 cells were grown to confluence and serum starved in DMEM supplemented with 0.4% fetal calf serum for 24 h, and stimulated with wild type and mutant FGF-1 (5 ng/ml) in the presence or absence of 5 μg/ml heparin for 10 min at 37° C. Cells were washed twice with ice-cold PBS and lysed with the lysis buffer (20 mM Tris-HCI pH 8.0, 120 mM NaCl, 5 mM EDTA, 0.5% Triton-X100, 1 mM PMSF, 1 mM DTT, 10 mM NaF, 1 mM Na3VO4, 10 μg/ml aprotinin). Cell lysates were separated on 4-12% NuPAGE Bis-Tris Gel (invitrogen). Proteins were then transferred to PVDF membranes (Milli-pore), probed with antibodies, and bound antibodies were detected by HRP-conjugated anti-mouse IgG and chemiluminescence HRP substrate (Pierce). The antibodies used were anti-phospho-ERK1/2, anti-ERK1/2 (Cell Signaling Technology).

Balb 3T3 cells [1] = test: Chemotaxis assay (Transwell); assay type: cell-based, mouse; details: for effect of the mutation on FGF-1-induced chemotaxis: 5 ng/ml, 24 h; for Chemotaxis: phenotype of FGF-1 mutants, Table 2
Procedure: The bottom of the polycarbonate filter of the Transwell apparatus was coated with 10 μg/ml of fibronectin. The lower chamber contained 600 μI of serum-free DMEM containing 5 ng/ml wild-type or mutants FGF-1. Balb 3T3 cells (10^5 cells/filter) were plated on filter and incubated 37° C. for 24 h, and cells were stained with crystal violet. Cells that migrated to the bottom side of the membrane were counted. Results are expressed as means of the number of migrated cells in 2 fields.
A polycarbonate filter of 8 μm pore size of the Transwell insert was coated with 10 μg/ml of fibronectin (Sigma) overnight at 4° C. After washing, the insert was placed into a 24-well cell culture plate, and the lower portion of the plate was filled with 600 μl of serum-free DMEM containing 5 ng/ml wild type or mutant FGF-1. Balb 3T3 cells (10^5 cells/filter) were plated on filter and incubated 37° C. for 24 h, and cells were visualized by crystal violet staining (0.5% crystal violet in 50 mM Borate, pH 9.0, and 2% ethanol). The uncoated side of each filter was wiped with a cotton swab to remove cells that had not migrated through the filter. Migrated cells were counted from the digital images of stained cells. Determining the mean number of cells counted per field. Results are expressed as means±SD of the relative cell number with non-stimulated cells set as 100).

Balb 3T3 cells [2] = test: DNA synthesis by BrdU incorporation; assay type: cell-based, mouse; details: for effect of the mutation on FGF-1 induced BrdU incorporation: 5 ng/ml, 5 μg/ml heparin, 24 h; for DNA synthesis: phenotype of FGF-1 mutants, Table 2
Procedure: Balb 3T3 cells were plated on cover slips in 6-well culture plates, serum starved (DMEM, 0.4% fetal calf serum) for 48 h, and stimulated with 5 ng/ml wild-type and mutant FGF-1s in the presence of 5 μg/ml heparin for 24 h. BrdU was added to the medium for the last 6 h of the incubation. Cells were fixed and incubated with anti BrdU antibody. BrdU incorporated cells were stained with DAB. The mean value of BrdU positive cells from wild type-treated culture was set to 100%, and the corresponding results from mutant-treated cultures were scaled accordingly. Results are shown as means±S.D. Asterisks indicate significant differences (p<0.05) compared with wild type treatment.
DNA synthesis was measured by BrdU incorporation. Balb 3T3 cells were plated on sterile cover slips in 6-well culture plates and serum starved in DMEM supplemented with 0.4% fetal calf serum for 48 h, and stimulated with 5 ng/ml wild type and mutant FGF-1s for 24 h in the presence and absence of 5 μg/ml heparin. BrdU (10 μg/ml) was added to the medium for the last 6 h of the incubation. Cells were then fixed with 70% ethanol and incubated with 2N HCI. After the medium was neutralized with 0.1 M borate buffer (pH 8.5), the cells were incubated with anti-BrdU antibody (BD PharMingen, San Diego, Calif.). BrdU incorporated cells were stained with HRP conjugated secondary antibody (Biorad) and metal enhanced diaminobenzidine substrate kit (Pierce, Rockford, Ill.). Diaminobenzidine positive and negative cells were counted from the digital images of three independent fields.

FGFR1 D2D3 fragment = target: T1, FGFR1 D2D3 fragment (Homo sapiens, UniProt P11362); test: Competition with biotinylated FGF-1 for immobilized FGF receptor D2D3 fragments; assay type: binding; details: for effect of the mutation on binding of the FGFR1 D2D3 fragment: competition with 1 μg/ml biotinylated FGF-1; for FGFR binding: phenotype of FGF-1 mutants, Table 2
T1 construct: A DNA fragment encoding amino acid residues 140 to 365 of the immunoglobulin-like domains D2 and D3 of FGFR; made in house
T1 sequence (P11362 140-365): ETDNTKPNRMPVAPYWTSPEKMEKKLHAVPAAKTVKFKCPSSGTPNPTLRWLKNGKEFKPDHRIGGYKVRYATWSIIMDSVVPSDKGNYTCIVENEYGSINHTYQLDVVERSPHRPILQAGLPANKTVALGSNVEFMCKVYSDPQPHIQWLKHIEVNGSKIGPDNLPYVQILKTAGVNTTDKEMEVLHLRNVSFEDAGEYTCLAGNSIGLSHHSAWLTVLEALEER
Procedure: One μg/mi biotinylated FGF-1 and increasing concentrations of unlabelled FGF-1 or FGF-1 mutants were incubated for 1 h at RT with immobilized FGF receptor D2D3 fragments. Then the plate was washed and the bound biotinylated FGF were measured using an avidin conjugated HRP. Unlabeled wild-type (diamond) FGF-1, the R50E (square), 4xE (circle), and 3xA (triangle) FGF-1 mutants were used.
A DNA fragment encoding amino acid residues 140 to 365 of the immunoglobulin-like domains D2 and D3 of FGFR was amplified by PCR with the full length human FGFR1 cDNA in the pcDNA3 (gift from Ann Hanneken, the Scripps Research Institute, La Jolla, Calif.) as a template. A Bam HI restriction site was introduced at the 5′ end, Xho I site at the 3′ end of the cDNA fragment with the following primers: 5′-[…]-3′ (SEQ ID NO:5), 5′-[…]-3′ (SEQ ID NO:6). The resulting cDNA fragment was subcloned into the Bam HI/Xho I sites of the vector pET21a, and transformed into BL21 (DE3).
The protein was expressed as an insoluble protein, refolded as described (Plotnikov et al., 2000). The refolded protein was purified by affinity chromatography using the FGF-1 coupled to CNBr-activated Sepharose (Amersham Pharmacia Biotech) as an affinity matrix. FGF-1-Sepharose was incubated with crude refolded proteins 16 h at 4° C. After binding, the affinity matrix was washed with buffer containing 100 mM NaCl and 50 mM Tris (pH 7.4); and eluted with 1.2M NaCl, and 50 mM Tris (pH 7.4).

- effect of the mutation on binding of the FGFR1 D2D3 fragment (FGFR1 D2D3 fragment): did not block
- FGFR binding (FGFR1 D2D3 fragment): Normal
Molecule: R50E: FGF-1 mutant with the Arg-50 to Glu (R50E) mutation
- ability to induce ERK1/2 activation (ERK1/2): much less ability
- ERK1/2 activation (ERK1/2): Low
- effect of the mutation on FGF-1-induced chemotaxis (Balb 3T3 cells [1]): blocked
- Chemotaxis (Balb 3T3 cells [1]): Low
- effect of the mutation on FGF-1 induced BrdU incorporation (Balb 3T3 cells [2]): significantly blocked
- DNA synthesis (Balb 3T3 cells [2]): Low

- FGFR binding (FGFR1 D2D3 fragment): Normal
Molecule: Wild type: human FGF-1 (acidic FGF), wild type, expressed in E. coli
- ERK1/2 activation (ERK1/2): Normal
- Chemotaxis (Balb 3T3 cells [1]): Normal
- DNA synthesis (Balb 3T3 cells [2]): Normal

- effect of the mutation on binding of the FGFR1 D2D3 fragment (FGFR1 D2D3 fragment): did not block
- FGFR binding (FGFR1 D2D3 fragment): Normal
B1: 4xE: FGF-1 mutant, Lys127/Lys128/Lys133/Arg134 simultaneously to Glu (protein)
chain: FNLPPGNYKKPKLLYCSNGGHFLRILPDGTVDGTRDRSDQHIQLQLSAESVGEVYIKSTETGQYLAMDTDGLLYGSQTPNEECLFLERLEENHYNTYISKKHAEKNWFVGLEENGSCEEGPRTHYGQKAILFLPLPVSSD
- ability to induce ERK1/2 activation (ERK1/2): did not induce ERK1/2 activation at all
- ERK1/2 activation (ERK1/2): Low
- effect of the mutation on FGF-1-induced chemotaxis (Balb 3T3 cells [1]): blocked
- Chemotaxis (Balb 3T3 cells [1]): Low
- effect of the mutation on FGF-1 induced BrdU incorporation (Balb 3T3 cells [2]): significantly blocked
- DNA synthesis (Balb 3T3 cells [2]): Low

- effect of the mutation on binding of the FGFR1 D2D3 fragment (FGFR1 D2D3 fragment): effectively blocked
- FGFR binding (FGFR1 D2D3 fragment): Low
B2: 3xA: FGF-1 mutant, three residues in the FGFR binding site (Glu102/Tyr109/Asn110) to Ala (protein)
chain: B1 chain with E87A, Y94A, N95A, E112K, E113K, E118K, E119R
- ability to induce ERK1/2 activation (ERK1/2): did not show ERK1/2 activation
- ERK1/2 activation (ERK1/2): Low
- Chemotaxis (Balb 3T3 cells [1]): Low
- effect of the mutation on FGF-1 induced BrdU incorporation (Balb 3T3 cells [2]): also blocked
- DNA synthesis (Balb 3T3 cells [2]): Low
